# What was measured:
# [1] = molecular target: T1, Mouse RON-hIgG1 Fc (murine RON Sema/PSI/IPT1, natural leader + R33-V684, fused to human IgG1 Fc) (mouse); assay: SPR (Biacore), anti-Fc chip; legend names murine RON-Fc; the sheet's scheme ('RON or MSP' over 'MSP-Fc or RON-Fc') and have the MSPβ-Fc fusion captured and soluble RON-His injected
# T1 construct: also called mRON-hFc; murine RON-Fc
# Description: Binding kinetics of RON to MSP β-Fc fusion proteins and MSP proteins to RON-Fc fusions were determined using a Biacore 3000 optical biosensor equipped with a research-grade CM5 sensor chip (GE Healthcare). Amine coupling reagents, N-ethyl-N′-dimethylamino-propylcarbodiimide (EDC), N-hydroxy-succinimide (NHS) and sodium ethanolamine HCl, pH 8.5, were obtained from GE Healthcare. Standard coupling protocols were used to tether a rabbit anti-human IgG1 or rabbit anti-murine IgG2a (Jackson ImmunoResearch Laboratories) onto the biosensor surface. A biosensor chip that was subjected to the amine coupling procedure with no protein coupled was used to correct for non-specific binding. […] Various concentrations (500-3.9 nM, 2-fold dilution series) of RON-His, were injected in HBS-P buffer (10 mM HEPES, pH 7.5, 150 mM NaCl, 0.005% P20) at 25° C. with a flow rate of 30 μL/min and dissociation monitored for 240 sec. Between measurements, the biosensor surfaces were regenerated with a 120 s pulse of 10 mM glycine-HCl pH 1.5 followed by a 120 s wash with running buffer.
# [2] = molecular target: T2, Human RON-hIgG1 Fc (RON Sema/PSI/IPT1 fused to human IgG1 Fc) (human); assay: BLI using RON-Fc at 30 C
# T2 construct: also called RON-Fc; hRON-Fc
# Description: Real-time kinetic measurements of MSP binding to RON were conducted using an Octet RED384 (ForteBio, Inc). Samples or buffer were dispensed into 96-well microtiter plates (Greiner Bio-One North America, Inc.) at a volume of 200 μl per well. Anti-human IgG Fc Biosensors were used for the experiments. Each experiment consisted of three steps: incubation with ForteBio Kinetic buffer diluted 1:10 in PBS assay buffer to establish an equilibrium for 120 s (baseline), incubation with 10 μg/ml RON-Fc in assay buffer to coat the biosensor with binding target for 900 s (load), incubation with MSP, MSP β or scMSP in assay buffer containing various concentrations (75-4.7 nM, 2-fold dilution series) for 400 s (association), and incubation with assay buffer to measure the off-rate of MSP for 400 s (dissociation). Operating temperature was maintained at 30° C. Data were generated automatically by the Octet Data Acquisition 7.0 software. Each data set was fitted globally to a simple one-to-one binding model using ForteBio Analysis Software 7.0 to determine the kinetic parameters kₐ and kd. The equilibrium dissociation constants (KD) were then calculated as a ratio (koff/kₒₙ) of these rate constants.
# [3] = molecular target: T2, Human RON-hIgG1 Fc (RON Sema/PSI/IPT1 …); assay: SPR capturing RON-Fc at 25 C
# Description: To determine MSP protein binding kinetics to hRON-Fc or mRON-Fc fusion proteins, between 50 and 100 response units (RU) were captured on each of three immobilized anti-human Fc surfaces. Various concentrations (50-0.78 nM, 2-fold dilution series) of MSP, MSP β, MSP α or scMSP were injected in HBS-P buffer (10 mM HEPES, pH 7.5, 150 mM NaCl, 0.005% P20) at 25° C. with a flow rate of 30 μL/min and dissociation monitored for 4 min. Between measurements, the biosensor surfaces were regenerated with a 2 min pulse of 10 mM glycine-HCl pH 1.5.
# [4] = molecular target: T3, Recombinant human RON Sema/PSI (residues E25-P568) with C-terminal His-tag (human, UniProt Q04912 25-568); assay: SPR using immobilized RON Sema/PSI at 25 C
# T3 construct: Made in Trichoplusia ni insect cells
# T1 sequence (chain, as listed by the source limits assumed): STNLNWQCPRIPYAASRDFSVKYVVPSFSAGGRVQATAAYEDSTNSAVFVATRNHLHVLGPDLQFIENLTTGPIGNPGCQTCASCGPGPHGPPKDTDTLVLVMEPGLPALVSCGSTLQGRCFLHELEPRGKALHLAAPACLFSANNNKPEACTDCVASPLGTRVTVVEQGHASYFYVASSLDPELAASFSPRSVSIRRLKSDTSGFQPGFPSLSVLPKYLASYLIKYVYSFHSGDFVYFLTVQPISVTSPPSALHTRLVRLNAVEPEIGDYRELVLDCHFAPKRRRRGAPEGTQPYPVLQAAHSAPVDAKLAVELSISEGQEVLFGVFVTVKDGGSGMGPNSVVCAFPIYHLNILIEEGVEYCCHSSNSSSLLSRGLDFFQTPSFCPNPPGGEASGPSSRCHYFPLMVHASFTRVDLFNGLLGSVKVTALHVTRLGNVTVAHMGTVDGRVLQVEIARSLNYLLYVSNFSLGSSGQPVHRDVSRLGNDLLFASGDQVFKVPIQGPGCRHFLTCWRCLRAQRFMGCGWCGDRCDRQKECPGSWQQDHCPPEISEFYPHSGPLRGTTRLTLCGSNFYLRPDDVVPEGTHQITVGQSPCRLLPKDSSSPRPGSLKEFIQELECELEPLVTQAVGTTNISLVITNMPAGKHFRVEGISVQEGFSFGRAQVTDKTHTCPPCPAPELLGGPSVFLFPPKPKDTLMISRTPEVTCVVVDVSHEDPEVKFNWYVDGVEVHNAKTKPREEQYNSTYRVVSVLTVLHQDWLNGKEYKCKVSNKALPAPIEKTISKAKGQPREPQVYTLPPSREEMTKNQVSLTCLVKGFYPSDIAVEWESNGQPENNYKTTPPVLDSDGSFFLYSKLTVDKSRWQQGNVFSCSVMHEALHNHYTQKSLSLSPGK
# T2 sequence (chain, as listed by the source limits assumed): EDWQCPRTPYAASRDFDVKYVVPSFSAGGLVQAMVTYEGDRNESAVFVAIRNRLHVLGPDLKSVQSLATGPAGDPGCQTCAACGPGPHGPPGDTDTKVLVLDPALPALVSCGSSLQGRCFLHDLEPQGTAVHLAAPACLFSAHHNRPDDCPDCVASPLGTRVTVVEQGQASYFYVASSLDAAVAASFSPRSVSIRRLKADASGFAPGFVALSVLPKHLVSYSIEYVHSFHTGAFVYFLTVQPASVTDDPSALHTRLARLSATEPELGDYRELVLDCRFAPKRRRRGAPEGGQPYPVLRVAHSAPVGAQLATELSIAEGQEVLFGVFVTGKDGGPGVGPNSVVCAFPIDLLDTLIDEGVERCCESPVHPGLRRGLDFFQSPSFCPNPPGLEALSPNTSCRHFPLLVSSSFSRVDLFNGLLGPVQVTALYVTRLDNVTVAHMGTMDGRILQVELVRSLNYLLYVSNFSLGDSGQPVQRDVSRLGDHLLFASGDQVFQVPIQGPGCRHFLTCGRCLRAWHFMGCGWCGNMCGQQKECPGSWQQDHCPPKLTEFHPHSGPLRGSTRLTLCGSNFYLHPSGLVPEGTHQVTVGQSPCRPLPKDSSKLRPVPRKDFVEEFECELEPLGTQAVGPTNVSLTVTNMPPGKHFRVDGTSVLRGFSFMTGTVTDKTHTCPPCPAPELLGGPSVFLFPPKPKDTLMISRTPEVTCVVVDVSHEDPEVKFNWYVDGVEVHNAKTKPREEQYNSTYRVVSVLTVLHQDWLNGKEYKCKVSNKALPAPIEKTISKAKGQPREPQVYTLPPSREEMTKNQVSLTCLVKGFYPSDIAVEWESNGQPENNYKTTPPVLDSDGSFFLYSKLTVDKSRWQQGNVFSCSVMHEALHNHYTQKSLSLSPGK
binder,measurement,setting,value
"m.L4.m DANA (Fc fusion, As m4m, with the DANA mutations in the Fc; also called m4m (DANA); Mouse MSP β-L4-mIgG2a Fc (DANA)) MSP β-linker-Fc fusion chain: VVGGHPGNSPWTVSLRNRQGQHFCGGSLVKEQWVLTARQCIWSCHEPLTGYEVWLGTINQNPQPGEANLQRVPVAKAVCGPAGSQLVLLKLERPVILNHHVALIALPPEQYVVPPGTKCEIAGWGESIGTSNNTVLHVASMNVISNQECNTKYRGHIQESEICTQGLVVPVGACEGDYGGPLACYTHDAWVLQGLIIPNRVCARPRWPAIFTRVSVFVDWINKVMQLETIKPCPPCKCPAPNLLGGPSVFIFPPKIKDVLMISLSPIVTCVVVAVSEDDPDVQISWFVNNVEVHTAQTQTHREDYASTLRVVSALPIQHQDWMSGKEFKCKVNNKDLPAPIERTISKPKGSVRAPQVYVLPPPEEEMTKKQVTLTCMVTDFMPEDIYVEWTNNGKTELNYKNTEPVLDSDGSYFMYSKLRVEKKNWVERNSYSCSVVHEGLHNHHTTKSFSRTPGK",Kd,[1],13.8 nM
"m.L8.m DANA (Fc fusion, As m8m, with the DANA mutations in the Fc; also called m8m (DANA); Mouse MSP β-L8-mIgG2a Fc (DANA)) MSP β-linker-Fc fusion chain: VVGGHPGNSPWTVSLRNRQGQHFCGGSLVKEQWVLTARQCIWSCHEPLTGYEVWLGTINQNPQPGEANLQRVPVAKAVCGPAGSQLVLLKLERPVILNHHVALIALPPEQYVVPPGTKCEIAGWGESIGTSNNTVLHVASMNVISNQECNTKYRGHIQESEICTQGLVVPVGACEGDYGGPLACYTHDAWVLQGLIIPNRVCARPRWPAIFTRVSVFVDWINKVMQLEPRGPTIKPCPPCKCPAPNLLGGPSVFIFPPKIKDVLMISLSPIVTCVVVAVSEDDPDVQISWFVNNVEVHTAQTQTHREDYASTLRVVSALPIQHQDWMSGKEFKCKVNNKDLPAPIERTISKPKGSVRAPQVYVLPPPEEEMTKKQVTLTCMVTDFMPEDIYVEWTNNGKTELNYKNTEPVLDSDGSYFMYSKLRVEKKNWVERNSYSCSVVHEGLHNHHTTKSFSRTPGK",Kd,[1],5 nM
"m.L12.m DANA (Fc fusion, As m12m, with the DANA mutations in the Fc; also called m12m (DANA); Mouse MSP β-L12-mIgG2a Fc (DANA)) MSP β-linker-Fc fusion chain: VVGGHPGNSPWTVSLRNRQGQHFCGGSLVKEQWVLTARQCIWSCHEPLTGYEVWLGTINQNPQPGEANLQRVPVAKAVCGPAGSQLVLLKLERPVILNHHVALIALPPEQYVVPPGTKCEIAGWGESIGTSNNTVLHVASMNVISNQECNTKYRGHIQESEICTQGLVVPVGACEGDYGGPLACYTHDAWVLQGLIIPNRVCARPRWPAIFTRVSVFVDWINKVMQLEKKIEPRGPTIKPCPPCKCPAPNLLGGPSVFIFPPKIKDVLMISLSPIVTCVVVAVSEDDPDVQISWFVNNVEVHTAQTQTHREDYASTLRVVSALPIQHQDWMSGKEFKCKVNNKDLPAPIERTISKPKGSVRAPQVYVLPPPEEEMTKKQVTLTCMVTDFMPEDIYVEWTNNGKTELNYKNTEPVLDSDGSYFMYSKLRVEKKNWVERNSYSCSVVHEGLHNHHTTKSFSRTPGK",Kd,[1],9.7 nM
"m.L16.m DANA (Fc fusion, As m16m, with the DANA mutations in the Fc; also called m16m (DANA); Mouse MSP β-L16-mIgG2a Fc (DANA)) MSP β-linker-Fc fusion chain: VVGGHPGNSPWTVSLRNRQGQHFCGGSLVKEQWVLTARQCIWSCHEPLTGYEVWLGTINQNPQPGEANLQRVPVAKAVCGPAGSQLVLLKLERPVILNHHVALIALPPEQYVVPPGTKCEIAGWGESIGTSNNTVLHVASMNVISNQECNTKYRGHIQESEICTQGLVVPVGACEGDYGGPLACYTHDAWVLQGLIIPNRVCARPRWPAIFTRVSVFVDWINKVMQLEQVTDKKIEPRGPTIKPCPPCKCPAPNLLGGPSVFIFPPKIKDVLMISLSPIVTCVVVAVSEDDPDVQISWFVNNVEVHTAQTQTHREDYASTLRVVSALPIQHQDWMSGKEFKCKVNNKDLPAPIERTISKPKGSVRAPQVYVLPPPEEEMTKKQVTLTCMVTDFMPEDIYVEWTNNGKTELNYKNTEPVLDSDGSYFMYSKLRVEKKNWVERNSYSCSVVHEGLHNHHTTKSFSRTPGK",Kd,[1],6.6 nM
"Human MSP β R689C (HGF leader + V484-G711 + C588S + C672A + R689C + His tag) (ligand, This is an inference) VVGGHPGNSPWTVSLRNRQGQHFCGGSLVKEQWILTARQCFSSCHMPLTGYEVWLGTLFQNPQHGEPSLQRVPVAKMVCGPSGSQLVLLKLERSVTLNQRVALISLPPEWYVVPPGTKCEIAGWGETKGTGNDTVLNVALLNVISNQECNIKHRGRVRESEMCTEGLLAPVGACEGDYGGPLACFTHNAWVLEGIIIPNRVCARSCWPAVFTRVSVFVDWIHKVMRLGHHHHHH",Kd,[2],9.1 nM
same,koff,[2],0.0093 s⁻¹
same,kon,[2],1.75e+06 M⁻¹ s⁻¹
same,Kd,[3],9 nM
same,koff,[3],0.0479 s⁻¹
same,kon,[3],5.75e+06 M⁻¹ s⁻¹
same,Kd,[4],9.1 nM
same,koff,[4],0.0142 s⁻¹
same,kon,[4],1.3e+06 M⁻¹ s⁻¹
"h.L16.m (Fc fusion, Human MSP β joined by a 16-residue linker to murine IgG2a Fc; also called h16m; Human MSP β-L16-mIgG2a Fc) MSP β-linker-Fc fusion chain: VVGGHPGNSPWTVSLRNRQGQHFCGGSLVKEQWILTARQCFSSCHMPLTGYEVWLGTLFQNPQHGEPSLQRVPVAKMVCGPSGSQLVLLKLERSVTLNQRVALISLPPEWYVVPPGTKCEIAGWGETKGTGNDTVLNVALLNVISNQECNIKHRGRVRESEMCTEGLLAPVGACEGDYGGPLACFTHNAWVLEGIIIPNRVCARSRWPAVFTRVSVFVDWIHKVMRLGQVTDKKIEPRGPTIKPCPPCKCPAPNLLGGPSVFIFPPKIKDVLMISLSPIVTCVVVDVSEDDPDVQISWFVNNVEVHTAQTQTHREDYNSTLRVVSALPIQHQDWMSGKEFKCKVNNKDLPAPIERTISKPKGSVRAPQVYVLPPPEEEMTKKQVTLTCMVTDFMPEDIYVEWTNNGKTELNYKNTEPVLDSDGSYFMYSKLRVEKKNWVERNSYSCSVVHEGLHNHHTTKSFSRTPGK",Kd,[1],11.6 nM
"h.L16.m DANA (Fc fusion, As h16m, with the D265A and N297A (DANA) mutations in the Fc; also called h16m (DANA); Human MSP β-L16-mIgG2a Fc (DANA)) MSP β-linker-Fc fusion chain: VVGGHPGNSPWTVSLRNRQGQHFCGGSLVKEQWILTARQCFSSCHMPLTGYEVWLGTLFQNPQHGEPSLQRVPVAKMVCGPSGSQLVLLKLERSVTLNQRVALISLPPEWYVVPPGTKCEIAGWGETKGTGNDTVLNVALLNVISNQECNIKHRGRVRESEMCTEGLLAPVGACEGDYGGPLACFTHNSWVLEGIIIPNRVCARSRWPAVFTRVSVFVDWIHKVMRLGQVTDKKIEPRGPTIKPCPPCKCPAPNLLGGPSVFIFPPKIKDVLMISLSPIVTCVVVAVSEDDPDVQISWFVNNVEVHTAQTQTHREDYASTLRVVSALPIQHQDWMSGKEFKCKVNNKDLPAPIERTISKPKGSVRAPQVYVLPPPEEEMTKKQVTLTCMVTDFMPEDIYVEWTNNGKTELNYKNTEPVLDSDGSYFMYSKLRVEKKNWVERNSYSCSVVHEGLHNHHTTKSFSRTPGK",Kd,[1],10.9 nM
